Measurements published in publication PMC10097714, “ALS-linked TDP-43 mutations interfere with the recruitment of RNA recognition motifs to G-quadruplex RNA”.
One block for each molecule: values may come before it.

What was measured:
[1] = biological target: His-tagged RRM segment of TDP-43 (101-261aa) (UniProt Q13148); test: GST pull-down (glutathione sepharose beads) with western blotting, band quantification; conditions: three experiments, parent: est. 1.0, read off a plot
TDP-43 WT full-length [2] = biological target: T1, TDP-43 WT full-length (human, UniProt Q13148 1-414); test: EMSA (agarose); EMSA: 20 mM PIPES-NaOH pH 6.8, 150 mM NaCl, 0.8 mM MgCl2, 10% glycerol, 0.1 mg/ml BSA, 0.1 mg/ml poly-dI-dC, 25 C, gel 0.5x TBE pH 6.8; SPR: 20 mM PIPES pH 6.8, 12 mM KCl, 0.8 mM MgCl2, 150 mM NaCl, 0.05% Tween-20, 25 C; UV cross-linking: EMSA buffer without poly-dI-dC; pull-down: PIPES pH 6.8, 145 mM NaCl, 5.4 mM KCl, 0.8 mM MgCl2, 1.8 mM CaCl2, 0.05% Tween-20, 10% glycerol, 4 C; conditions: protein: recombinant; tags: untagged; chain copies: 2; label: 5' Cy3, 3' Alexa Fluor 647; parallel G4, A loop
GST-RRM [3] = biological target: T2, GST-RRM (human, UniProt Q13148 101-261); test: EMSA (agarose); higher affinity than CaMKIIa G4; EMSA: 20 mM PIPES-NaOH pH 6.8, 150 mM NaCl, 0.8 mM MgCl2, 10% glycerol, 0.1 mg/ml BSA, 0.1 mg/ml poly-dI-dC, 25 C, gel 0.5x TBE pH 6.8; SPR: 20 mM PIPES pH 6.8, 12 mM KCl, 0.8 mM MgCl2, 150 mM NaCl, 0.05% Tween-20, 25 C; UV cross-linking: EMSA buffer without poly-dI-dC; pull-down: PIPES pH 6.8, 145 mM NaCl, 5.4 mM KCl, 0.8 mM MgCl2, 1.8 mM CaCl2, 0.05% Tween-20, 10% …; conditions: protein: recombinant; tags: GST; label: 5' Cy3, 3' Alexa Fluor 647; parallel G4, A loop
GST-RRM [4] = biological target: T2, GST-RRM; test: EMSA (agarose); EMSA: 20 mM PIPES-NaOH pH 6.8, 150 mM NaCl, 0.8 mM MgCl2, 10% glycerol, 0.1 mg/ml BSA, 0.1 mg/ml poly-dI-dC, 25 C, gel 0.5x TBE pH 6.8; SPR: 20 mM PIPES pH 6.8, 12 mM KCl, 0.8 mM MgCl2, 150 mM NaCl, 0.05% Tween-20, 25 C; UV cross-linking: EMSA buffer without poly-dI-dC; pull-down: PIPES pH 6.8, 145 mM NaCl, 5.4 mM KCl, 0.8 mM MgCl2, 1.8 mM CaCl2, 0.05% Tween-20, 10% glycerol, 4 C; conditions: protein: recombinant; tags: GST; label: 3' Alexa Fluor 647
TDP-43 WT full-length [5] = biological target: T1, TDP-43 WT full-length; test: EMSA (agarose); up to 10x protein; EMSA: 20 mM PIPES-NaOH pH 6.8, 150 mM NaCl, 0.8 mM MgCl2, 10% glycerol, 0.1 mg/ml BSA, 0.1 mg/ml poly-dI-dC, 25 C, gel 0.5x TBE pH 6.8; SPR: 20 mM PIPES pH 6.8, 12 mM KCl, 0.8 mM MgCl2, 150 mM NaCl, 0.05% Tween-20, 25 C; UV cross-linking: EMSA buffer without poly-dI-dC; pull-down: PIPES pH 6.8, 145 mM NaCl, 5.4 mM KCl, 0.8 mM MgCl2, 1.8 mM CaCl2, 0.05% Tween-20, 10% glycerol, 4 C; conditions: protein: recombinant; tags: untagged; chain copies: 2; label: 3' Alexa Fluor 647
GST-RRM [6] = biological target: T2, GST-RRM; test: EMSA (agarose); lower affinity than PSD-95 G4; EMSA: 20 mM PIPES-NaOH pH 6.8, 150 mM NaCl, 0.8 mM MgCl2, 10% glycerol, 0.1 mg/ml BSA, 0.1 mg/ml poly-dI-dC, 25 C, gel 0.5x TBE pH 6.8; SPR: 20 mM PIPES pH 6.8, 12 mM KCl, 0.8 mM MgCl2, 150 mM NaCl, 0.05% Tween-20, 25 C; UV cross-linking: EMSA buffer without poly-dI-dC; pull-down: PIPES pH 6.8, 145 mM NaCl, 5.4 mM KCl, 0.8 mM MgCl2, 1.8 mM CaCl2, 0.05% Tween-20, 10% …; conditions: protein: recombinant; tags: GST; label: 5' Cy3, 3' Alexa Fluor 647; parallel G4
TDP-43 WT full-length [7] = biological target: T1, TDP-43 WT full-length; test: as above; conditions: protein: recombinant; tags: untagged; chain copies: 2; label: 5' Cy3, 3' Alexa Fluor 647; parallel G4

ratio to parent ([1]; + CaMKIIα G4 RNA): 0.26
ratio to parent ([1]; + PSD-95 G4 RNA): 0.2
Molecule: GST-fused wild-type glycine-rich (GR) segment of TDP-43 M337V

ratio to parent ([1]; + CaMKIIα G4 RNA): 0.52
ratio to parent ([1]; + PSD-95 G4 RNA): 0.31
Molecule: GST-fused wild-type glycine-rich (GR) segment of TDP-43 G287S

Molecule: GGGGAAAAGGGAGGGAUGGG (structured_RNA) [Cy3-PSD-Ax647]
binding result (TDP-43 WT full-length [2]): binds
binding result (GST-RRM [3]): binds

Molecule: UGUGUGUGUGUGUGUGUGUG (ssRNA) [UG10-Ax647]
binding result (GST-RRM [4]): binds
binding result (TDP-43 WT full-length [5]): no binding

Molecule: UGGGGGGGGCGGGUGGGA (structured_RNA) [Cy3-CaMKII-Ax647]
binding result (GST-RRM [6]): binds
binding result (TDP-43 WT full-length [7]): binds
